Test results: patent EP4669352A1 (dated 2025)

What was measured:
[1] = biological target: T1, H3 protein (vaccinia virus, UniProt P07240 1-278); test: ELISA on recombinant protein
T1 sequence: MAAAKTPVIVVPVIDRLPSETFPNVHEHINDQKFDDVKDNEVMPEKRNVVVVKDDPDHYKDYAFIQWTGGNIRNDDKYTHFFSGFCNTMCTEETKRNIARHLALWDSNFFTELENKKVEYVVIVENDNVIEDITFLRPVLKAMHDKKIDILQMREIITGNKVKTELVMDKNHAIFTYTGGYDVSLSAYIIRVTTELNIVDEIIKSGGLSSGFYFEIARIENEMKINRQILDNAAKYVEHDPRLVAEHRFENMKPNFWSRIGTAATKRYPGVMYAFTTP

[2] = biological target: B5 protein (vaccinia virus, UniProt Q01227 18-279); test: ELISA on recombinant VACV surface proteins
[3] = biological target: T1, H3 protein; test: ELISA on recombinant VACV surface proteins
[4] = biological target: T2, L1 protein (vaccinia virus, UniProt P07612 1-183); test: ELISA on recombinant VACV surface proteins
T2 sequence: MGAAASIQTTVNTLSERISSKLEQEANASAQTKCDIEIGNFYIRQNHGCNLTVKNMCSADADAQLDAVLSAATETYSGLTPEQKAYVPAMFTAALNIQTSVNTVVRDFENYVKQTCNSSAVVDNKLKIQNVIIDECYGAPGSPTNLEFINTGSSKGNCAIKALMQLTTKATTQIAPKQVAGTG

[5] = biological target: T3, VACV A33 recombinant protein (vaccinia virus, UniProt P68616 89-185); test: ELISA on recombinant VACV surface proteins
[6] = biological target: T4, A27 protein (vaccinia virus, UniProt P11258 1-110); test: ELISA on recombinant VACV surface proteins
T4 sequence: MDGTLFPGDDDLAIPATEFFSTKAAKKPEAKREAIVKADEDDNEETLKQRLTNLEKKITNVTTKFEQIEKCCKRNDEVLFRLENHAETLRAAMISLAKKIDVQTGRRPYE

[7] = biological target: T3, VACV A33 recombinant protein

B1: MV7 (antibody, V domains shown)
VH: QEQLVQSGGGLAKPGGSLRISCAASGFVFSRSAMHWVRQAPGKGLEWVSGISGGGATYYADSVKGRFTISRDNSKNTFSLQMNSLRLEDTAVYYCAKDRRRSVASSYFDSWGQGVLVTVSS
VL: QSVLTQPQSVSVSPGQTARISCGGDNIGSKNVHWYQQKPPQAPVLVIYAGTERPSGIPERFSGSNSGNTATLTISGVEAGDEADYYCQVWDGTREHVLFGGGTRLTVL
[1]
  binding result: binds

B2: EV4 (antibody, V domains shown)
VH: QVQLQESGPGLVKPSETLSLTCAVSGGSISNNYWSWVRQAPGKGLEWIGRIYGSSGSSSYNPSLTGRLTISRDTSKNQLSLRLNSMTAADTAFYYCVRQYFGPRGAFDFWGQGLRVTVSS
VL: QPGLTQSPSASEAARKSVTISCSGSSSNIGSNSVSWYQQLPETAPKLLVYYNDRRASSVSDRFSGSKSGTSASLAISGLQTEDEADYYCAAWDNSLSGYVFGAGTRLTVL
[2]
  binding result: no binding
[3]
  binding result: no binding
[4]
  binding result: no binding
[5]
  binding result: no binding
[6]
  binding result: no binding

B3: EV42 (antibody, V domains shown)
VH: EVQLVESGPRLVKPSETLSLTCAVSGASITSNYWSWIRQPPGKGLEWIGRTPGSSGSTDYNPSLKSRVTISTDTSKNQFSLKLTSVTAADTAVYFCARRYTDSYYLYYFDFWSQGVLVTVSS
VL: QSALTQPPSVSGSPGQSVTISCTGTNSDIGSYKYVSWYQKHPGKAPKLVIYDVSQRPSGVSDRFSGSKSGNTASLTISGLQAEDEADYYCSSYAGINTFNVFGSGTKLTIL
[7]
  Kd: 0.095 nM

B4: MV31 (antibody, V domains shown)
VH: EVQLAESGGGLVPPDGSLRLSCTASGFTFSNYWMYWFRQAPGKGLEWVASISGSRRNIDYSDSVKGRFTISRDNAKNTLFLQMNRLRGDDTAVYYCAREGETSTYFFDPWGQGVLVTASS
VL: QPVLTQPPTVSKSLGQSVTISCTGTSSDVGGYNYVSWYQQRPGKAPKLLIYEVTKRPSGVSDRFSGSKSGNTASLTISGLQAEDEADYYCSSYTTSNTYIFGTGTRLTVL
[1]
  binding result: binds

B5: MV26 (antibody, V domains shown)
VH: EVQLAESGGGLVQPGGSLRLSCAASGFTFSNYWMYWFRQAPGKGLEWVSSISGSRRNIHYSDSVRGRFTVSRDNAKSTLSLQMNSLRPEDTAVYYCAREGETSTFYFGYWGQGVLVTASS
VL: KPMLTQPPSVSVSPGQTARITCGGDNLGTKNVQWYQQKSAQAPVVVIYDDGERPSGIPERFSGSKSGNVATLTISGVEAGDDADYYCQVWDGSSDHPIFGRGTRLTVL
[1]
  binding result: binds
